Measurements published in patent publication US20090155236A1, “Peptide sequence for modulation of delta protein kinase c” (NATIONAL INSTITUES OF HEALTH (NIH), U.S. DEPT OF HEALTH AND …, priority 2004, published 2009).

How the values were obtained:
[1] = target: recombinant full-length delta PKC (rat); assay: ELISA, presence of calcium
[2] = target: recombinant full-length delta PKC (rat); assay: ELISA, absence of calcium
[3] = target: annexin V protein (human) (UniProt P08758); assay: ELISA, annexin V immobilised, presence of calcium
Sequence of annexin V protein (human) (P08758 2-320 limits assumed): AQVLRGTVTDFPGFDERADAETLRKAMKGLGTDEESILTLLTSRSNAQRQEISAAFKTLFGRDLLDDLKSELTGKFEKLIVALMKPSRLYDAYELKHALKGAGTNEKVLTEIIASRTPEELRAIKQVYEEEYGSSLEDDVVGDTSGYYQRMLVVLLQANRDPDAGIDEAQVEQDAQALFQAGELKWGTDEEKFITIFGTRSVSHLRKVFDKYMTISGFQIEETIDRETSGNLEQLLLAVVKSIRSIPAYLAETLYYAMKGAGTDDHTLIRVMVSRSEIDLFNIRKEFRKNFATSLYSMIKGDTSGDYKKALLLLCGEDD

[4] = target: annexin V protein (human) (UniProt P08758); assay: ELISA, annexin V immobilised, absence of calcium

| Substance | percent binding [1] [%] | percent binding [2] [%] | percent binding [3] [%] | percent binding [4] [%] |
| --- | --- | --- | --- | --- |
| annexin V protein (from UniProt P08758 2-320) | 100 | 75 | – | – |
| delta V1 PKC (from UniProt P09215 1-160) | – | – | 100 | 55 |
